Laboratory results published in patent US20240262910A1 (Memorial Sloan Kettering, published 2024).

T1: mouse CD33 extracellular domain with 6xHis-tag (mouse, UniProt Q63994 18-240)
T1 construct: range 18-240; also called moCD33-His; moCD33(ECD)-His
T1 sequence: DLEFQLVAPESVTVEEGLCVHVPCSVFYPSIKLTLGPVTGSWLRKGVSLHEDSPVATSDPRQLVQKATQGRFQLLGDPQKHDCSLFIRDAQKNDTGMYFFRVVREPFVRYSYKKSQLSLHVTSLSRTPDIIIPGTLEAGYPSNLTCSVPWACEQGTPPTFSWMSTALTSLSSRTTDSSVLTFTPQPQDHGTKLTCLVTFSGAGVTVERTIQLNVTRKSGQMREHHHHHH


How the values were obtained:
[1] = biological target: T2, human CD33, full length, on cells (human, UniProt P20138 18-364); assay: flow cytometry, 3T3-CD33 cells
T2 construct: NIH-3T3 cells stably overexpressing full-length human CD33, or AML lines U937 and Set2 with endogenous CD33; the cell line is named under assay; also called 3T3-huCD33; 3T3-CD33
T2 sequence (P20138 18-364): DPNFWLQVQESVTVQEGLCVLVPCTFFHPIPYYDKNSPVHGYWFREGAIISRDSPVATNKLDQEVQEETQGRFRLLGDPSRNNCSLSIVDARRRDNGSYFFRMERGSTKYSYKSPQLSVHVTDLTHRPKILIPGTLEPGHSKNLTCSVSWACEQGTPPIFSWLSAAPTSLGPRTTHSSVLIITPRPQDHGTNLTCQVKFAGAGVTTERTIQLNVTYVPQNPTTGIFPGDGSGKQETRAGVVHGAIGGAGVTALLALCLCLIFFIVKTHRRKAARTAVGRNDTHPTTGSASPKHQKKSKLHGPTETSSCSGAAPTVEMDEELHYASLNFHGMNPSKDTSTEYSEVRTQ
Experimental: (§1) Binding to CD33 on Cells. To assess the binding of TDI-Y-006, TDI-Y-007 and 1J19 to cell surface-bound CD33, 3T3 cells overexpressing CD33, as well as the U937 AML cell line, which expresses endogenous CD33, were used. U937 CD33KO or NALM6 were included as negative controls. Briefly, NALM6, U937 CD33+ and KO cells were blocked with human IgG Fc for 20 minutes on ice. The recombinant antibodies were then serially diluted starting at 100 μg/mL concentration and added for 30 minutes on ice. AlexaFluor 647-conjugated goat anti-human F(ab′)2 was added to cells for 30 minutes on ice, washed and analyzed by flow cytometry, normalized to secondary only staining (MFI ratio). EC50 values were determined by non-linear regression.

[2] = biological target: T2, human CD33, full length, on cells; assay: flow cytometry on 3T3 cells overexpressing human CD33, antibody titration, AlexaFluor 647 goat anti-human F(ab')2 detection, MFI ratio to secondary only
Experimental: as §1

[3] = biological target: T2, human CD33, full length, on cells; assay: flow cytometry, U937 cells
Experimental: as §1

[4] = biological target: T1, mouse CD33 extracellular domain with …; assay: ELISA: CD33-His protein at 5 µg/mL captured on Ni-NTA plate, antibody at 10 µg/mL in triplicate, HRP anti-human Fc detection, OD450
Experimental: Binding to Recombinant CD33 Protein. Binding to CD33 protein was carried out by ELISA using human CD33-His (full-length or IgC2 domain), cynomolgus monkey CD33-His and mouse CD33-His. Recombinant proteins at 5 μg/mL were captured by pre-blocked Ni-NTA plates. Candidate antibodies were added at 10 μg/mL in triplicate and detected using horseradish peroxidase (HRP)-conjugated anti-human Fc antibody. […] No binding was detected to cynomolgus or mouse CD33 for either TDI-Y-006 and TDI-Y-007. 1J19 and H195 only bound to full-length human CD33 ECD but not to IgC2 as these antibodies target the IgV domain.

[5] = biological target: T2, human CD33, full length, on cells; assay: summary table; flow cytometry, 3T3 cells overexpressing CD33; 3T3 cells overexpressing CD33
Experimental: as §1

[6] = biological target: T3, human CD33 extracellular domain with 6xHis-tag (human, UniProt P20138 18-259); assay: BLI (Octet Red96e), antibody on anti-huFc sensor, huCD33-His as analyte, 1:1 fit
T3 construct: Bought (R&D Systems, Acro Biosystems); also called huCD33-His; huCD33(ECD)-His
T3 sequence (P20138 other isoform, or with tags, fused parts or gaps): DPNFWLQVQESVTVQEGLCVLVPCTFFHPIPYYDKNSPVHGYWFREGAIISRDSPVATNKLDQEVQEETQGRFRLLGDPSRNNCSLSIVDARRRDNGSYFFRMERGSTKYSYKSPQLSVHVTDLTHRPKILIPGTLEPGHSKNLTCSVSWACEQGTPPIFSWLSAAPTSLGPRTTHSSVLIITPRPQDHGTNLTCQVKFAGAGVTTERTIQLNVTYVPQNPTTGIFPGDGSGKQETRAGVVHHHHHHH
Experimental: (§2) The binding affinity to human CD33 protein was measured by biolayer interferometry (BLI) using an Octet Red96e. All experiments were carried out using kinetic buffer (PBS pH 7.4, 0.01% BSA, 0.002% Tween-20). The antibodies were captured by an anti-huFc biosensor and a 7-point, 2-fold dilution series of huCD33-His was used as analyte. The data was processed by double reference subtraction, and response curves were globally fit to a 1:1 Langmuir binding model. […] The binding affinities are similar to the H195 reference antibody.

[7] = biological target: T3, human CD33 extracellular domain with …; assay: BLI, huCD33-His on anti-penta-His sensor, no competitor
Experimental: Epitope Binning. Epitope binning was carried out by a BLI competition experiment using an Octet Red96e. Human CD33-His was captured by an anti-penta-His biosensor. A 4×4 matrix with TDI-Y-006, TDI-Y-007, 1J19 and H195 was tested. A reference biosensor was used to determine the overall capture level for each antibody. After pre-binding the antibodies at saturation levels, the biosensors were dipped into antibody solutions to assess competition. […] However, when TDI-Y-006 was pre-bound, binding of TDI-Y-007 was blocked. […] Similarly, 1J19 and H195 have epitopes that partially overlap. No competition was observed between antibodies binding to the membrane-proximal IgC2 domain (TDI-Y-006 and TDI-Y-007) and antibodies binding to the membrane-distal IgV domain (1J19 and H195).

[8] = biological target: T2, human CD33, full length, on cells; assay: summary table; flow cytometry, AML cell line U937; U937 AML cell line (endogenous CD33)
Experimental: as §1

[9] = biological target: T1, mouse CD33 extracellular domain with …; assay: ELISA on recombinant moCD33-His, purified hybridoma subclone antibody, readout RLU; antibody concentration not given
[10] = biological target: T2, human CD33, full length, on cells; assay: flow cytometry, purified mAb, Set2 cells
[11] = biological target: T2, human CD33, full length, on cells; assay: flow cytometry, hybridoma supernatant, U937 cells
[12] = biological target: T2, human CD33, full length, on cells; assay: flow cytometry, purified mAb, U937 cells
[13] = biological target: T2, human CD33, full length, on cells; assay: flow cytometry, hybridoma supernatant, 3T3-huCD33 cells
[14] = biological target: T4, human CD33 IgC2 type domain with 6xHis-tag (human, UniProt P20138 140-259); assay: ELISA, hybridoma supernatant
T4 construct: Produced at LakePharma; also called huCD33IgC2-His; CD33 IgC2-6xHis
T4 sequence (P20138 other isoform, or with tags, fused parts or gaps): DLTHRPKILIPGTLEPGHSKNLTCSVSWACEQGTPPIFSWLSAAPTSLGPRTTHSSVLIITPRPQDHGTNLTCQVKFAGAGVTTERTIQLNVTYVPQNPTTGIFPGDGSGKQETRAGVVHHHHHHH

[15] = biological target: T3, human CD33 extracellular domain with …; assay: ELISA, hybridoma supernatant
[16] = biological target: T5, human CD33 IgC2 domain only, on NIH-3T3 cells (human, UniProt P20138 140-364); assay: flow cytometry, hybridoma supernatant, 3T3-huCD33IgC2 cells
T5 construct: the whole entry is named here; also called 3T3-huCD33IgC2; 3T3 CD33-IgC2
T5 sequence (P20138 140-364 limits assumed): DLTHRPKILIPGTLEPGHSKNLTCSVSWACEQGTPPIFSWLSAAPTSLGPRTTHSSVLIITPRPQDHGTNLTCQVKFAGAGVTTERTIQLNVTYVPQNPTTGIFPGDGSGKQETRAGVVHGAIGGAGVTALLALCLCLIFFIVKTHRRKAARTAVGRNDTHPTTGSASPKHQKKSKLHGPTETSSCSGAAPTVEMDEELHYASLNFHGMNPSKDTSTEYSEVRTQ

[17] = biological target: T2, human CD33, full length, on cells; assay: summary table; flow cytometry, 3T3 cells overexpressing CD33
Experimental: as §1

[18] = biological target: T3, human CD33 extracellular domain with …; assay: summary table; binding affinity to soluble CD33 (BLI)
Experimental: as §2

Binder	EC50 [1]	EC50 (read off the curve) [2]	EC50 [3]	binding result [4]	Kd [6]	kon [6]	BLI total binding capacity (Reference Biosensor) [7]	EC50 [8]	EC50 [10]	MFI [11]	EC50 [12]	MFI [13]	RLU [14]	RLU [15]	MFI [16]	further results
TDI-Y-006 (antibody, V domains shown, also called 3P14 (recombinant, human IgG1 constant region)) VH: EVQLLESGGGLVQPGGSLRLSCAASGFTFSTYAMSWVRQAPGKGLEWVSAISGRGGSTYYTDSVKGRFTISRDNSKNTVSLQMNSLRAEDTAVYYCAGRGDYYYYYGMDVWGQGTTVTVSA VL: DIVMTQSPLSSPVTLGQPASFSCRSSQSLVYSDGNTYLSWLQQRPGQPPRLLIYKISNRFSGVPDRFSGSGAGTDFTLKISRVEAEDVGVYYCMQSTQFPHTFGQGTKLEIK	5 nM	~8 nM	8.5 nM	no binding (tested: 10 µg/mL)	1.21 nM	296000 M⁻¹ s⁻¹	0.86	8.5 nM	–	–	–	–	–	–	–	EC50 [17]: 5 nM; Kd [18]: 1.2 nM; koff [18]: 0.000359 s⁻¹; kon [18]: 296000 M⁻¹ s⁻¹
3-P14 (hybridoma antibody) (antibody, V domains shown, AlivaMab mouse hybridoma antibody; also called 3-P14-A) VH: EVQLLESGGGLVQPGGSLRLSCAASGFTFSTYAMSWVRQAPGKGLEWVSAISGRGGSTYYTDSVKGRFTISRDNSKNTVSLQMNSLRAEDTAVYYCAGRGDYYYYYGMDVWGQGTTVTVSA VL: DIVMTQSPLSSPVTLGQPASFSCRSSQSLVYSDGNTYLSWLQQRPGQPPRLLIYKISNRFSGVPDRFSGSGAGTDFTLKISRVEAEDVGVYYCMQSTQFPHTFGQGTKLEIK	–	–	–	–	–	–	–	–	2.4 nM	248000 MFI	3.27 nM	3.06e+06 MFI	107000 RLU	546000 RLU	544000 MFI	–

The next lines start with results.

EC50 [1]	EC50 (read off the curve) [2]	EC50 [3]	binding result [4]	Kd [6]	kon [6]	BLI total binding capacity (Reference Biosensor) [7]	EC50 [8]	EC50 [10]	MFI [11]	EC50 [12]	MFI [13]	RLU [14]	RLU [15]	MFI [16]	Binder	further results
17 nM	~40 nM	44.9 nM	no binding (tested: 10 µg/mL)	1.29 nM	464000 M⁻¹ s⁻¹	0.299	45 nM	–	–	–	–	–	–	–	TDI-Y-007 (antibody, V domains shown, also called 4B2 (recombinant, human IgG1 constant region)) VH: EVHLLESGGGLVQPGGSLRLSCAASGFIFSSNAMSWVRQAPGKGLEWVSAISGYGGNTYYADSVKGRFTISRDNSKNTLYLQMNSLRAEDTAVYYCAKWGTYIVGATGDYWGQGTLVTVSS VL: QSALTQPPSASGSPGQSVTISCTGTSNDVGGYNYVSWYQQHPGKAPKLLIYEVSKRPSGVPDRFSGSQSGNTASLTVSGLQAEDEADYYCSSYAGSNNWVFGGGTKLTVL	EC50 [5]: 17 nM; koff [6]: 0.000597 s⁻¹
–	–	–	–	–	–	–	–	28.5 nM	152000 MFI	40.5 nM	2.82e+06 MFI	101000 RLU	392000 RLU	358000 MFI	4-B2 (hybridoma antibody) (antibody, V domains shown, AlivaMab mouse hybridoma antibody; also called 4-B2-A) VH: EVHLLESGGGLVQPGGSLRLSCAASGFIFSSNAMSWVRQAPGKGLEWVSAISGYGGNTYYADSVKGRFTISRDNSKNTLYLQMNSLRAEDTAVYYCAKWGTYIVGATGDYWGQGTLVTVSS VL: QSALTQPPSASGSPGQSVTISCTGTSNDVGGYNYVSWYQQHPGKAPKLLIYEVSKRPSGVPDRFSGSQSGNTASLTVSGLQAEDEADYYCSSYAGSNNWVFGGGTKLTVL	binding result [9]: no binding
